US12589171B2, “177-Lu labeled peptide for site-specific uPAR-targeting” (priority 2012, dated 2026)

Assay: in vivo
Parameters: species or system NMRI nude mice
Conditions: female, NMRI nude, mouse, iv, total radioactivity
Method: For PET/CT imaging, one mouse was injected with ^64Cu-DOTA-AE105 and scanned 1 h post injection. Gamma planar imaging was performed on another mouse 1 h post injection of ^177Lu-DOTA-AE105. Quantitative data were based on manual drawings of region-of-interest analyses on PET/CT data and from analyzed whole tumor tissue using a gamma-counter for planar data. A. Representative images after PET/CT (left) and Gamma planar (right) imaging of HT-29 tumor xenograft. White arrows indicate tumor xenograft. B. […] Quantitative tumor uptake data is presented as % ID/g±SEM based on three animals. Ten min static PET scans were acquired with a microPET Focus 120 scanner (Siemens Medical Solutions, Malvern, PA) 1 hr post i.v. injection of approximately 10 MBq of either ^64Cu-DOTA-AE105 or ^18F-FLT during sevoflurane anesthesia. All PET/CT settings were used as described in detail previously. All results were analyzed using Inveon software (Siemens Medical Solutions) and PET data was expressed as percent of injected dose per gram tissue (% ID/g), with CT-data expressed as cubic millimeters (mm^3). […] This is illustrated in FIG. 2A (left), where a colorectal HT-29 tumor bearing mouse was PET/CT scanned using ^64Cu-DOTA-AE105. […] In FIG. 2A (right) is a representative planar image of a HT-29 tumor bearing mice after injection of ^177Lu-DOTA-AE105.

For `CC(C)C[C@H](NC(=O)[C@H](Cc1ccc(O)cc1)NC(=O)[C@@H](CCCNC(=N)N)NC(=O)[C@@H](CO)NC(=O)[C@H](Cc1ccccc1)NC(=O)[C@H](CC1CCCCC1)NC(=O)[C@H](CC(=O)O)NC(=O)CN1CCN(CC(=O)O)CCN(CC(=O)O)CCN(CC(=O)O)CC1)C(=O)N[C@@H](Cc1c[nH]c2ccccc12)C(=O)N[C@@H](CO)C(N)=O` [^64Cu-DOTA-AE105, metal not drawn], the tissue uptake at 1 h was 0.86 ± 0.03 %ID/g.
